In patent publication US20230124669A1 (ADAGENE, published 2023):

T1: mouse CD137 expressed on cells (mouse, UniProt P20334 24-256)
T1 construct: whole, on cells
T1 sequence (looked up): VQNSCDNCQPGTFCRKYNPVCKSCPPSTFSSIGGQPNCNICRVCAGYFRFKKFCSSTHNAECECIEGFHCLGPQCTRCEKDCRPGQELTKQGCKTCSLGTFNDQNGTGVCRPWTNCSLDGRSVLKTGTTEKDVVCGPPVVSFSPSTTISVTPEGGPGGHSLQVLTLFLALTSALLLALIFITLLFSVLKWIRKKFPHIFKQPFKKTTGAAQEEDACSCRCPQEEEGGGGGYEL

B1: TY22362 (bispecific antibody, human IgG4 S228P, kappa)
heavy: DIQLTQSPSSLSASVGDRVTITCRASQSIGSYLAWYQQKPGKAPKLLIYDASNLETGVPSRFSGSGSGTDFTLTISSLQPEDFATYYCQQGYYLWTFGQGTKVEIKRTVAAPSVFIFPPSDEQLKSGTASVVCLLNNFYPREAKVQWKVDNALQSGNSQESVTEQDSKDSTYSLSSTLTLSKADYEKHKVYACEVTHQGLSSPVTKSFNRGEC
light: EVQLVESGGGLVQPGGSLRLSCAASGFSLSTGGVGVGWIRQAPGKGLEWLALIDWADDKYYSPSLKSRLTISRDNSKNTLYLQLNSLRAEDTAVYYCARGGSDTVIGDWFAYWGQGTLVTVSSASTKGPSVFPLAPCSRSTSESTAALGCLVKDYFPEPVTVSWNSGALTSGVHTFPAVLQSSGLYSLSSVVTVPSSSLGTKTYTCNVDHKPSNTKVDKRVESKYGPPCPPCPAPEFLGGPSVFLFPPKPKDTLMISRTPEVTCVVVDVSQEDPEVQFNWYVDGVEVHNAKTKPREEQFNSTYRVVSVLTVLHQDWLNGKEYKCKVSNKGLPSSIEKTISKAKGQPREPQVYTLPPSQEEMTKNQVSLTCLVKGFYPSDIAVEWESNGQPENCYKTTPPVLDCDGSFFLYSRLTVDKSRWQEGNVFSCSVMHEALHNHYTQKSLSLSLGSGGGSGGGGSEVQLVESGGGLVQPGGSLRLSCAASGYSISSGYYWGWIRQAPGKCLEWIGIIYPSGGGTNYAQKFQGRVTISRDNSKNTLYLQLNSLRAEDTAVYYCARGGGLGFDYWGQGTLVTVSSGGGGSGGGGSGGGGSGGGGSDIQLTQSPSSLSASVGDRVTITCRASQSIPSFLNWYQQKPGKAPKLLIYAASSLQSGVPSRFSGSGSGTDFTLTISSLQPEDFATYYCQHYISWPRQFTFGCGTKVEIKR
notes: Morrison format: anti-CD137 Fab, anti-PDL1 scFv; also called CD137 × PDL1 bispecific antibody, format TYF08
B2: TY22359 (bispecific antibody, human IgG1, kappa, N297A)
heavy: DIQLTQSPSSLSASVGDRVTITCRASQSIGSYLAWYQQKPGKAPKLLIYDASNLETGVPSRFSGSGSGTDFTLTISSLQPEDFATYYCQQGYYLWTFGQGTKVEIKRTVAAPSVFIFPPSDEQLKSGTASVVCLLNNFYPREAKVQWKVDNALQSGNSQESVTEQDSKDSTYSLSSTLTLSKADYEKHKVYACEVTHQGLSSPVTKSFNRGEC
light: EVQLVESGGGLVQPGGSLRLSCAASGFSLSTGGVGVGWIRQAPGKGLEWLALIDWADDKYYSPSLKSRLTISRDNSKNTLYLQLNSLRAEDTAVYYCARGGSDTVIGDWFAYWGQGTLVTVSSASTKGPSVFPLAPSSKSTSGGTAALGCLVKDYFPEPVTVSWNSGALTSGVHTFPAVLQSSGLYSLSSVVTVPSSSLGTQTYICNVNHKPSNTKVDKRVEPKSCDKTHTCPPCPAPELLGGPSVFLFPPKPKDTLMISRTPEVTCVVVDVSHEDPEVKFNWYVDGVEVHNAKTKPREEQYASTYRVVSVLTVLHQDWLNGKEYKCKVSNKALPAPIEKTISKAKGQPREPQVYTLPPSREEMTKNQVSLTCLVKGFYPSDIAVEWESNGQPENCYKTTPPVLDCDGSFFLYSKLTVDKSRWQQGNVFSCSVMHEALHNHYTQKSLSLSPGSGGGSGGGGSEVQLVESGGGLVQPGGSLRLSCAASGYSISSGYYWGWIRQAPGKCLEWIGIIYPSGGGTNYAQKFQGRVTISRDNSKNTLYLQLNSLRAEDTAVYYCARGGGLGFDYWGQGTLVTVSSGGGGSGGGGSGGGGSGGGGSDIQLTQSPSSLSASVGDRVTITCRASQSIPSFLNWYQQKPGKAPKLLIYAASSLQSGVPSRFSGSGSGTDFTLTISSLQPEDFATYYCQHYISWPRQFTFGCGTKVEIKR
notes: Morrison format: anti-CD137 Fab, anti-PDL1 scFv; also called CD137 × PDL1 bispecific antibody, format TYF05; Format 5
B3: TY22121 (bispecific antibody, human IgG1, kappa)
heavy: DIQLTQSPSSLSASVGDRVTITCRASQSIPSFLNWYQQKPGKAPKLLIYAASSLQSGVPSRFSGSGSGTDFTLTISSLQPEDFATYYCQHYISWPRQFTFGQGTKVEIKRTVAAPSVFIFPPSDEQLKSGTASVVCLLNNFYPREAKVQWKVDNALQSGNSQESVTEQDSKDSTYSLSSTLTLSKADYEKHKVYACEVTHQGLSSPVTKSFNRGEC
light: not shown
notes: Morrison format: anti-PDL1 Fab, anti-CD137 scFv at the C-terminus of the Fc; IgG1; heavy chain = VH-CH1-hinge-CH2-CH3-linker-scFv; also called PDL1 × CD137 bispecific antibody, format TYF01
B4: TY22165 (bispecific antibody, human IgG4 S228P, kappa)
heavy: B3 heavy
light: EVQLVESGGGLVQPGGSLRLSCAASGYSISSGYYWGWIRQAPGKGLEWIGIIYPSGGGTNYAQKFQGRVTISRDNSKNTLYLQLNSLRAEDTAVYYCARGGGLGFDYWGQGTLVTVSSASTKGPSVFPLAPCSRSTSESTAALGCLVKDYFPEPVTVSWNSGALTSGVHTFPAVLQSSGLYSLSSVVTVPSSSLGTKTYTCNVDHKPSNTKVDKRVESKYGPPCPPCPAPEFLGGPSVFLFPPKPKDTLMISRTPEVTCVVVDVSQEDPEVQFNWYVDGVEVHNAKTKPREEQFNSTYRVVSVLTVLHQDWLNGKEYKCKVSNKGLPSSIEKTISKAKGQPREPQVYTLPPSQEEMTKNQVSLTCLVKGFYPSDIAVEWESNGQPENCYKTTPPVLDCDGSFFLYSRLTVDKSRWQEGNVFSCSVMHEALHNHYTQKSLSLSLGSGGGSEVQLVESGGGLVQPGGSLRLSCAASGFSLSTGGVGVGWIRQAPGKCLEWLALIDWADDKYYSPSLKSRLTISRDNSKNTLYLQLNSLRAEDTAVYYCARGGSDTVIGDWFAYWGQGTLVTVSSGGGGSGGGGSGGGGSGGGGSDIQLTQSPSSLSASVGDRVTITCRASQSIGSYLAWYQQKPGKAPKLLIYDASNLETGVPSRFSGSGSGTDFTLTISSLQPEDFATYYCQQGYYLWTFGCGTKVEIKR
notes: Morrison format: anti-PDL1 Fab, anti-CD137 scFv; IgG4(S228P) with N390C:S400'C; also called PDL1 × CD137 bispecific antibody, format TYF07
B5: TY22176 (bispecific antibody, human IgG1, kappa, N297A)
heavy: B3 heavy
light: EVQLVESGGGLVQPGGSLRLSCAASGYSISSGYYWGWIRQAPGKGLEWIGIIYPSGGGTNYAQKFQGRVTISRDNSKNTLYLQLNSLRAEDTAVYYCARGGGLGFDYWGQGTLVTVSSASTKGPSVFPLAPSSKSTSGGTAALGCLVKDYFPEPVTVSWNSGALTSGVHTFPAVLQSSGLYSLSSVVTVPSSSLGTQTYICNVNHKPSNTKVDKRVEPKSCDKTHTCPPCPAPELLGGPSVFLFPPKPKDTLMISRTPEVTCVVVDVSHEDPEVKFNWYVDGVEVHNAKTKPREEQYASTYRVVSVLTVLHQDWLNGKEYKCKVSNKALPAPIEKTISKAKGQPREPQVYTLPPSREEMTKNQVSLTCLVKGFYPSDIAVEWESNGQPENCYKTTPPVLDCDGSFFLYSKLTVDKSRWQQGNVFSCSVMHEALHNHYTQKSLSLSPGSGGGSEVQLVESGGGLVQPGGSLRLSCAASGFSLSTGGVGVGWIRQAPGKCLEWLALIDWADDKYYSPSLKSRLTISRDNSKNTLYLQLNSLRAEDTAVYYCARGGSDTVIGDWFAYWGQGTLVTVSSGGGGSGGGGSGGGGSGGGGSDIQLTQSPSSLSASVGDRVTITCRASQSIGSYLAWYQQKPGKAPKLLIYDASNLETGVPSRFSGSGSGTDFTLTISSLQPEDFATYYCQQGYYLWTFGCGTKVEIKR
notes: Morrison format: anti-PDL1 Fab, anti-CD137 scFv; IgG1 with N390C:S400'C and N297A; also called PDL1 × CD137 bispecific antibody, format TYF04
B6: TY22166 (bispecific antibody, human IgG4 S228P, kappa)
heavy: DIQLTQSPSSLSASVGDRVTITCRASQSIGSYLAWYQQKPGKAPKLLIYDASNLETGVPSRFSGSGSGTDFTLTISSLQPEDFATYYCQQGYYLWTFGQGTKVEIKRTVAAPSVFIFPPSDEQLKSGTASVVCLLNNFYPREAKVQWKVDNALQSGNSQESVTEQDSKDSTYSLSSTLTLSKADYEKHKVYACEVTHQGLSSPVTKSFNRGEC
light: EVQLVESGGGLVQPGGSLRLSCAASGFSLSTGGVGVGWIRQAPGKGLEWLALIDWADDKYYSPSLKSRLTISRDNSKNTLYLQLNSLRAEDTAVYYCARGGSDTVIGDWFAYWGQGTLVTVSSASTKGPSVFPLAPCSRSTSESTAALGCLVKDYFPEPVTVSWNSGALTSGVHTFPAVLQSSGLYSLSSVVTVPSSSLGTKTYTCNVDHKPSNTKVDKRVESKYGPPCPPCPAPEFLGGPSVFLFPPKPKDTLMISRTPEVTCVVVDVSQEDPEVQFNWYVDGVEVHNAKTKPREEQFNSTYRVVSVLTVLHQDWLNGKEYKCKVSNKGLPSSIEKTISKAKGQPREPQVYTLPPSQEEMTKNQVSLTCLVKGFYPSDIAVEWESNGQPENCYKTTPPVLDCDGSFFLYSRLTVDKSRWQEGNVFSCSVMHEALHNHYTQKSLSLSLGSGGGSEVQLVESGGGLVQPGGSLRLSCAASGYSISSGYYWGWIRQAPGKCLEWIGIIYPSGGGTNYAQKFQGRVTISRDNSKNTLYLQLNSLRAEDTAVYYCARGGGLGFDYWGQGTLVTVSSGGGGSGGGGSGGGGSGGGGSDIQLTQSPSSLSASVGDRVTITCRASQSIPSFLNWYQQKPGKAPKLLIYAASSLQSGVPSRFSGSGSGTDFTLTISSLQPEDFATYYCQHYISWPRQFTFGCGTKVEIKR
notes: Morrison format: anti-CD137 Fab, anti-PDL1 scFv; IgG4(S228P) with N390C:S400'C; also called CD137 × PDL1 bispecific antibody, format TYF07
B7: TY22177 (bispecific antibody, human IgG1, kappa, N297A)
heavy: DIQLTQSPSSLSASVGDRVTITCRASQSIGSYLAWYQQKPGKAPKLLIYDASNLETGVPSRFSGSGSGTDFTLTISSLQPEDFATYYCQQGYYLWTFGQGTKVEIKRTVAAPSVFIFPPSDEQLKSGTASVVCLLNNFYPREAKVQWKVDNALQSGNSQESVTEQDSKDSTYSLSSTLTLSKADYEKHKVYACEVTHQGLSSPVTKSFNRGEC
light: EVQLVESGGGLVQPGGSLRLSCAASGFSLSTGGVGVGWIRQAPGKGLEWLALIDWADDKYYSPSLKSRLTISRDNSKNTLYLQLNSLRAEDTAVYYCARGGSDTVIGDWFAYWGQGTLVTVSSASTKGPSVFPLAPSSKSTSGGTAALGCLVKDYFPEPVTVSWNSGALTSGVHTFPAVLQSSGLYSLSSVVTVPSSSLGTQTYICNVNHKPSNTKVDKRVEPKSCDKTHTCPPCPAPELLGGPSVFLFPPKPKDTLMISRTPEVTCVVVDVSHEDPEVKFNWYVDGVEVHNAKTKPREEQYASTYRVVSVLTVLHQDWLNGKEYKCKVSNKALPAPIEKTISKAKGQPREPQVYTLPPSREEMTKNQVSLTCLVKGFYPSDIAVEWESNGQPENCYKTTPPVLDCDGSFFLYSKLTVDKSRWQQGNVFSCSVMHEALHNHYTQKSLSLSPGSGGGSEVQLVESGGGLVQPGGSLRLSCAASGYSISSGYYWGWIRQAPGKCLEWIGIIYPSGGGTNYAQKFQGRVTISRDNSKNTLYLQLNSLRAEDTAVYYCARGGGLGFDYWGQGTLVTVSSGGGGSGGGGSGGGGSGGGGSDIQLTQSPSSLSASVGDRVTITCRASQSIPSFLNWYQQKPGKAPKLLIYAASSLQSGVPSRFSGSGSGTDFTLTISSLQPEDFATYYCQHYISWPRQFTFGCGTKVEIKR
notes: Morrison format: anti-CD137 Fab, anti-PDL1 scFv; IgG1 with N390C:S400'C and N297A; also called CD137 × PDL1 bispecific antibody, format TYF04

target: T2, Human PDL1 (SPR analyte) (human, UniProt Q9NZQ7 19-238, limits assumed); experiment: SPR (Biacore T200), antibody captured by anti-human IgG on CM5 chip, antigen injected as analyte, 1:1 Langmuir fit
T2 construct: also called PDL1H
T2 sequence (Q9NZQ7 19-238 limits assumed): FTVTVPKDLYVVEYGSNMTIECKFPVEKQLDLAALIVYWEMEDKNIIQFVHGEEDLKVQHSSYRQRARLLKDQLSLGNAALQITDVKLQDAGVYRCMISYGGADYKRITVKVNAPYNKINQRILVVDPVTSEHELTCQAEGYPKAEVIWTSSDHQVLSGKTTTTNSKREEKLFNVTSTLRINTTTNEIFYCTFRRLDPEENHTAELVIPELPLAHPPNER
Experimental: (§1) Biacore T200 (GE Healthcare) was used as a high performance system for real-time biomolecular interaction analysis, using surface plasmon resonance technology (“SPR”). During the measurement, anti-human IgG monoclonal antibody from the Human Antibody Capture Kit provided by Biacore was immobilized on CM5 chips, and IgG sample was injected onto sensor chip. Analytes were injected onto IgG captured flow cell for binding kinetic analysis in HBS-EP buffer.

| Kd | Binder |
| --- | --- |
| 40.3 nM | B1 |
| 29.8 nM | B2 |
| 6.9 nM | B3 |
| 7.7 nM | B4 |
| 8.1 nM | B5 |
| 42 nM | B6 |
| 33.4 nM | B7 |

target: T3, Human CD137 (SPR analyte) (human, UniProt Q07011 24-186, limits assumed); experiment: as above
T3 construct: also called CD137H
Experimental: as §1

| Kd | Binder |
| --- | --- |
| 2.8 nM | B1 |
| 2.7 nM | B2 |
| 14.1 nM | B3 |
| 5.2 nM | B4 |
| 7.1 nM | B5 |
| 3 nM | B6 |
| 7 nM | B7 |

target: T4, mouse PDL1 expressed on cells (mouse, UniProt Q9EP73 19-290); experiment: flow cytometry, antigen transiently expressed on yeast or HEK293F cells, IgG at 100 nM, Alexa Fluor 647 anti-human Fc detection (FIG. 13)
T4 construct: whole, on cells
T4 sequence (Q9EP73 19-290): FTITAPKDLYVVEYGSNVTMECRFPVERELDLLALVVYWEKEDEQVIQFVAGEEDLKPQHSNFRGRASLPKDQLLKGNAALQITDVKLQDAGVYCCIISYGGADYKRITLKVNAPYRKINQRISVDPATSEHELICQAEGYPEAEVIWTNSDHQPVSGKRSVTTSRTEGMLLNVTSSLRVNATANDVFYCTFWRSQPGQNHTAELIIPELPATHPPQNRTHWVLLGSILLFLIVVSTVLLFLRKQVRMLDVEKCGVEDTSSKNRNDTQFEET
Experimental: (§2) The affinity of antibodies was also assessed against human, monkey and mouse CD137 or PDL1 that were transiently expressed on the surface of yeast or HEK293F cells. Briefly, yeast or HEK293F cells were transfected with a plasmid expressing human, monkey or mouse CD137 or PDL1. After 48 hours, the transfected cells were harvested and then washed. Cells were then incubated with IgGs (each at 100 nM) at 4° C. in the shaking bed for 1 hour shaking at 300 rpm, protected from light. For simultaneously binding, cell were incubated with biotinylated human CD137 or PDL1 protein fused with human Fc fragment, and SA-PE (streptavidin, phycoerythrin conjugated). For cross-reactivity, cells were incubated with Alexa Fluor 647 conjugated mouse anti-human Fc antibodies. The mixtures were incubated at 4° C. in the shaking bed for 30 minutes shaking at 300 rpm, protected from light. The cells were washed once prior to analysis by flow cytometry (Beckman CytoFlex).

| binding result | Binder |
| --- | --- |
| binds | B3 |

target: T1, mouse CD137 expressed on cells; experiment: as above
Experimental: as §2

| binding result | Binder |
| --- | --- |
| binds | B3 |
